Results published in paper PMC6614557 (Nature medicine, 2018).

Assays:
[1] = target: T1, ONECUT2 (OC2), OC2-HOX domain (Homo sapiens, UniProt O95948); assay: SPR, His-tagged OC2-HOX immobilized, […] model fit; assay type: binding
T1 sequence (O95948 330-485): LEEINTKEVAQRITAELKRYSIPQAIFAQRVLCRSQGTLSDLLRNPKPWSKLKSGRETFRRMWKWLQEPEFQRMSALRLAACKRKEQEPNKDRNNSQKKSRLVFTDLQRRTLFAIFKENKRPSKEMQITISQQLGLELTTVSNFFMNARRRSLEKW

SEC = target: the molecule itself; assay: SEC
[2] = target: T2, OC2-HOX (ONECUT2 homeodomain construct) (Homo sapiens, UniProt O95948 330-485); assay: SPR
T2 sequence: T1 sequence (O95948 330-485)

With NC(CO)C(=O)N/N=C/c1ccc(O)c(O)c1O (racemic) [CSRM617, 1-{(E)-[(2,3,4-Trihydroxyphenyl)methylidene]hydrazino}−2-amino-3-hydroxy-1-propanone] as the molecule, how does the Kd [1] read?
The Kd was 7.43 µM.

B1: Recombinant OC2-HOX domain (L330-W485) of OC2 (domain or fragment, human, UniProt O95948 330-485, looked up)
chain: T1 sequence (O95948 330-485)
How did the “stoichiometry N” value (SEC) turn out when B1 was run?
Its value is 2.

B2: PEG10 promoter OC2 motif probe (dsDNA)
DNA 1: TAGATCGATTTGCA
DNA 2: TGCAAATCGATCTA
B2 was tested. Which Kd [2] did it give?
The Kd was roughly 0.001 µM.
